Measurements as given in article PMC6914384 (Nature, 2018).
No end group written: not given here.

What follows are substances tested against T1, p300 BRP (Homo sapiens, UniProt Q09472) (assay: ITC of histone and AIL peptides with p300 BRP). Details: p300 BRP module, Kd cell prints --.
T1 sequence (Q09472 1048-1282): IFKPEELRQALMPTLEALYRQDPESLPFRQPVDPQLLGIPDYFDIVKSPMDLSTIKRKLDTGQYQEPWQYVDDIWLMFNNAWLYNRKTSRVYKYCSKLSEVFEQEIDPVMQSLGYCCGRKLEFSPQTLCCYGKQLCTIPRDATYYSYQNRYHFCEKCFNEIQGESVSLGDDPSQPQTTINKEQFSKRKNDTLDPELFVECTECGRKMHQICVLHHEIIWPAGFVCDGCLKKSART
Format: binding

| Substance | Binding by ITC, result in words (printed in column N) |
| --- | --- |
| H3T11pho (1-20): histone H3 peptide 1-20, T11 phosphorylated | No binding |
| H4 K5ac (4-24): histone H4 peptide 4-24, K5ac | No binding |
| AIL K1549K1558K1560tri-ac (1545-1562): p300 autoinhibitory loop peptide 1545-1562 acetylated on K1549, K1558, K1560 (SKNAK(Ac)KKNNKKTSK(Ac)NK(Ac)SS) | No binding |
| H3 K4me1 (1-20): histone H3 peptide 1-20, K4me1 | No binding |
| ARTKQTQRKSTGGKAPRKQL [H3 unmodified (1-20)] | No binding |
| H4 K16ac (4-24): histone H4 peptide 4-24, K16ac | No binding |
| H3 S10pho (1-20): histone H3 peptide 1-20, S10 phosphorylated | No binding |
| H3 K4me3 (1-20): histone H3 peptide 1-20, K4me3 | No binding |
| H3 K9ac (1-20): histone H3 peptide 1-20, K9ac | No binding |
| SKNAKKKNNKKTSKNKSS [AIL (1545-1562)] | No binding |

Same assay, conditions: p300 BRP module, mean and s.d. of experiments in triplicate

| Substance | Kd (μM) |
| --- | --- |
| H3 K18ac (1-20): histone H3 peptide 1-20, K18ac | large |
